The target in assay [1] is T1, human IL-11 (human, UniProt P20809 22-199).
T1 sequence: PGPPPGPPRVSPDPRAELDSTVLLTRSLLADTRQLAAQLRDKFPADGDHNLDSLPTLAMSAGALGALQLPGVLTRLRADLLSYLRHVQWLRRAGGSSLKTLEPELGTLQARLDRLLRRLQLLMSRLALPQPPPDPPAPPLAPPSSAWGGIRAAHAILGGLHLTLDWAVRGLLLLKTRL
The assay is described as follows: cell-based or functional assay.

Assay [2] addresses T2, murine IL-11 (mouse, UniProt P47873 22-199).
T2 sequence: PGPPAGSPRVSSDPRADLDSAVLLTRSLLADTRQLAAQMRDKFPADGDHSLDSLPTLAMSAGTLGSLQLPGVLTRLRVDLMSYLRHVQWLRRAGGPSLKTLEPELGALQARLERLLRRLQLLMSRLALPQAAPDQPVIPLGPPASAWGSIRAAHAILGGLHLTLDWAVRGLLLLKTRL
The assay is described as follows: cell-based or functional assay.

The target in assay [3] is T3, rat IL-11 (rat, UniProt Q99MF5 22-199).
T3 sequence: T2 sequence with S50N, L84F, G94A, V137A, I138V
The assay is described as follows: cell-based or functional assay.

In assay [4] the target is T4, cynomolgus IL-11 (cynomolgus, UniProt P20808 22-199).
T4 sequence: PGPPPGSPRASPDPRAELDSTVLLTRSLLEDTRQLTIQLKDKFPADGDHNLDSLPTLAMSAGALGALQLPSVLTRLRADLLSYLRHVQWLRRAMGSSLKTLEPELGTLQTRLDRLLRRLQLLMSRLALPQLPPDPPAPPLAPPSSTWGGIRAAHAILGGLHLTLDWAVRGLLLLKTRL
The assay is described as follows: cell-based or functional assay.

The target in assay [5] is T1, human IL-11. The assay is described as follows: Di-complex ELISA, competitor canine IL11RA-Fc on coated IL-11.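 For Efficacy (%): signal drop relative to signal at lowest antibody concentration.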 On the procedure: (§1) The assay is performed using streptavidin coated microtiter plates (Greiner bio-one, #781997). In a first step, 10 nM biotinylated mouse IL-11 (Invigate, Germany, e.g., lot #C210819-09) or human IL-11 (Invigate, Germany, e.g., lot #C121021-19) is coated in 25 μl PBS on the plate at 4° C. overnight. Next day, the plate is washed three times with 50 μl PBST and then blocked with 50 μl SmartBlock (Candor, #113125) for one hour at room temperature (RT). After additional three washes with PBST, 25 μl of a mixture of the murine anti IL-11 antibody and recombinant canine IL11RA-Fc fusion protein (Sino Biological, #70078-D02H) in PBS-T, 10% Smartblock are added simultaneously to the plate and incubated for one hour at RT. […] After three additional washes with PBS-T, 25 μl anti-human-POD (Sigma, #A0170) in PBS-T, 10% Smartblock is added and incubated for 1 hour at RT. After a final three washes with PBS-T, 25 μl AmplexRed (Fisher Scientific, A12222), 1/1000 in PBS, 0,003% H₂O₂, is added as substrate and incubated for 15 min at RT in the dark. Then, the fluorescence is measured with a plate reader at 535/595 nm. Signals from dose responses were used to calculate IC50 values (GraphPad Prism). Efficacy was calculated as [(signal measured at lowest antibody concentration−signal measured at the highest antibody concentration)×100] divided by (signal measured at lowest antibody concentration−signal measured in the absence of IL11Ra).
(§2) IgG converted antibodies were subjected to the experimental assay procedure described in Example 18.

The target of assay [6] is T2, murine IL-11. The description is as above. The procedure:
as §1, §2

Assay [7] has as its target T1, human IL-11. Briefly: SPR 37 C, antibody captured, IL-11 as analyte. On the procedure:
(§3) To assess the binding kinetics and affinity of anti-IL-11 antibodies as well as their species cross-reactivity profile, binding assays were conducted using surface plasmon resonance (SPR). Binding assays were performed on a Biacore T200 instrument or on a Biacore 8K+ instrument (Cytiva) at 37° C. using assay buffer HBS EP+, 300 mM NaCl, 1 mg/ml BSA, 0.05% NaN3. Antibodies were captured either via anti-human Fc IgGs (“Human antibody capture kit”, Order No. BR100839, Cytiva) or via anti-mouse Fc IgGs (“Mouse antibody capture kit, Order No. BR100383, Cytiva) covalently amine coupled to a Series S CM5 sensor chip (Cytiva) depending on the isotype. The amine coupling was carried out according to the manufacturer's instructions using 1-ethyl-3-(3-dimethylaminopropyl) carbodiimide hydrochloride (EDC), N-hydroxysuccinimide (NHS) and ethanolamine HCl, pH 8.5 (“Amine Coupling Kit” BR-1000-50, Cytiva.). Human, mouse, cynomolgus or rat IL-11 was used as analyte at several dilutions within the concentration range from 0.05-200 nM. For binding assays with only one concentration 200 nM IL-11 was used. The sensor surface was regenerated with glycine pH 1.7 after each antigen injection. Obtained sensorgrams were double referenced (subtraction of reference flow cell signal and buffer injection) and were fitted to a 1:1 Langmuir binding model to derive kinetic data using the Biacore T200 Evaluation software or the Biacore Insight software. If no value is reported, there was either no binding or very low binding and multiphasic binding behavior. Values below 1E-12 were considered to be below the dynamic range of the instrument and set to <1E-12.

Assay [8] has as its target T2, murine IL-11. The assay is described as follows: SPR 37 C, antibody captured, IL-11 as analyte. On the procedure:
as §3

The target in assay [9] is T3, rat IL-11. The assay is described as follows: SPR 37 C, antibody captured, IL-11 as analyte. On the procedure:
as §3

Assay [10] addresses T4, cynomolgus IL-11. Briefly: SPR 37 C, antibody captured, IL-11 as analyte. On the procedure: as §3

Substitutions are numbered along the chain they refer to.

B1: TPP-29520 (antibody, mouse IgG1)
heavy: QVQLVESGGGVVQPGRSLRLSCAASGFTFSHYDMHWVRQAPGKGLEWVAVISYSGSVKFYADSVKGRFTISRDNSKNTLYLQMNSLRAEDTAVYYCARTPGSHFDYWGQGTLVTVSSAKTTPPSVYPLAPGSAAQTNSMVTLGCLVKGYFPEPVTVTWNSGSLSSGVHTFPAVLQSDLYTLSSSVTVPSSTWPSETVTCNVAHPASSTKVDKKIVPRDCGCKPCICTVPEVSSVFIFPPKPKDVLTITLTPKVTCVVVDISKDDPEVQFSWFVDDVEVHTAQTQPREEQFNSTFRSVSELPIMHQDWLNGKEFKCRVNSAAFPAPIEKTISKTKGRPKAPQVYTIPPPKEQMAKDKVSLTCMITDFFPEDITVEWQWNGQPAENYKNTQPIMDTDGSYFVYSKLNVQKSNWEAGNTFTCSVLHEGLHNHHTEKSLSHSPGK
light: QSVLTQPPSASGTPGQRVTISCSGSSSNIGSNYVNWYQQLPGTAPKLLIYYDDLRPSGVPDRFSGSKSGTSASLAISGLRSEDEADYYCSAWDDSLSGVVFGGGTKLTVLGQPKSSPSVTLFPPSSEELETNKATLVCTITDFYPGVVTVDWKVDGTPVTQGMETTQPSKQSNNKYMASSYLTLTARAWERHSSYSCQVTHEGHTVEKSLSRADCS
notes: mIgG1, Lambda
Regarding B1, the “RGA Efficacy (%)” value is 99.7% in the assay with human IL-11 [1], 100% with murine IL-11 [2], 101% in the assay with rat IL-11 [3] and 58.6% with cynomolgus IL-11 [4]. Moreover, the results for the “RGA IC50” value with human IL-11 [1], with murine IL-11 [2] and in the assay with rat IL-11 [3] were 1.7 nM, 0.91 nM and 1.3 nM, respectively. The “Efficacy (%)” value with human IL-11 [5] came to 0.3%; with murine IL-11 [6] it was 1.1%. The equilibrium dissociation constant (Kd) with human IL-11 [7] turned out to be 0.09 nM; in the assay with murine IL-11 [8] it was 0.11 nM; with rat IL-11 [9], 0.29 nM. Also, the binding result in the assay with cynomolgus IL-11 [10] is given as “no binding (tested: IL-11 up to 200 nM)”.

B2: TPP-29521 (antibody, mouse IgG1)
heavy: B1 heavy with S54E, V57N, S102F
light: B1 light with N35S
notes: mIgG1, Lambda
With B2, the “RGA Efficacy (%)” value in the assay with human IL-11 [1] was determined as 99.2%; with murine IL-11 [2], 103%; with rat IL-11 [3], 98.9%; with cynomolgus IL-11 [4], 60%. For the same molecule, the results for the “RGA IC50” value with human IL-11 [1], with murine IL-11 [2] and in the assay with rat IL-11 [3] were 1.9 nM, 0.76 nM and 1.8 nM, respectively. The “Efficacy (%)” value with human IL-11 [5] came out at 1.7%; with murine IL-11 [6], 12.1%. In addition, the Kd with human IL-11 [7] was found to be 0.18 nM; with murine IL-11 [8] it was 0.098 nM; with rat IL-11 [9], 2.1 nM. Besides, the binding result in the assay with cynomolgus IL-11 [10] is on record as “no binding (tested: IL-11 up to 200 nM)”.

B3: TPP-29522 (antibody, mouse IgG1)
heavy: B1 heavy with S54E, V57N, S102F
light: B1 light
notes: mIgG1, Lambda
Turning to B3, the “RGA Efficacy (%)” value in the assay with human IL-11 [1] turned out to be 98.6%; with murine IL-11 [2], 101%; with rat IL-11 [3], 101%; with cynomolgus IL-11 [4], 52%. For the same molecule, the “RGA IC50” value with human IL-11 [1] is 1.6 nM; in the assay with murine IL-11 [2], 0.78 nM; in the assay with rat IL-11 [3], 1.6 nM. The results for the “Efficacy (%)” value with human IL-11 [5] and in the assay with murine IL-11 [6] were 0% and 3.6%, respectively. The Kd with human IL-11 [7] came to 0.034 nM; with murine IL-11 [8], 0.029 nM; with rat IL-11 [9], 0.34 nM; with cynomolgus IL-11 [10], 24 nM.

B4: TPP-23580 (antibody, mouse IgG1, kappa)
heavy: EVQLVQSGAEVKKPGASVKISCKASGYTFTDYNMDWVKQAPGQRLEWIGDINPHNGGPIYNQKFTGRATLTVDKSASTAYMELSSLRSEDTAVYYCARGELGHWYFDVWGQGTTVTVSSAKTTPPSVYPLAPGSAAQTNSMVTLGCLVKGYFPEPVTVTWNSGSLSSGVHTFPAVLQSDLYTLSSSVTVPSSTWPSETVTCNVAHPASSTKVDKKIVPRDCGCKPCICTVPEVSSVFIFPPKPKDVLTITLTPKVTCVVVDISKDDPEVQFSWFVDDVEVHTAQTQPREEQFNSTFRSVSELPIMHQDWLNGKEFKCRVNSAAFPAPIEKTISKTKGRPKAPQVYTIPPPKEQMAKDKVSLTCMITDFFPEDITVEWQWNGQPAENYKNTQPIMDTDGSYFVYSKLNVQKSNWEAGNTFTCSVLHEGLHNHHTEKSLSHSPGK
light: DIVLTQSPASLALSPGERATLSCRASKSVSTSGYSYIHWYQQKPGQPPRLLIYLASNLDSGVPARFSGSGSGTDFTLNIHPLEEEDFATYYCQHSRDLPPTFGQGTKLEIKRADAAPTVSIFPPSSEQLTSGGASVVCFLNNFYPKDINVKWKIDGSERQNGVLNSWTDQDSKDSTYSMSSTLTLTKDEYERHNSYTCEATHKTSTSPIVKSFNRNEC
notes: text calls it the mouse IgG1 version of the WO2019238882 antibody; also called BSN 3C6 2.2-2.1-mIgG1Kappa
Take B4: the “RGA Efficacy (%)” value with human IL-11 [1] came out at 64%; with murine IL-11 [2], 88.9%; with rat IL-11 [3], 62.2%; with cynomolgus IL-11 [4] it was 21.9%. The “RGA IC50” value with murine IL-11 [2] worked out at 7.9 nM; with rat IL-11 [3], 14 nM. In addition, the “Efficacy (%)” value in the assay with human IL-11 [5] stood at 93.3%; in the assay with murine IL-11 [6] it was 93%. Also, the results for the IC50 with human IL-11 [5] and with murine IL-11 [6] were 10 nM and 6.8 nM, respectively. Also, the Kd worked out at 2.1 nM with human IL-11 [7], 2.4 nM with murine IL-11 [8] and 4.1 nM in the assay with rat IL-11 [9]. Moreover, the binding result with cynomolgus IL-11 [10] is recorded as “no binding (tested: IL-11 up to 200 nM)”.
